# From patent US20260275304A1, “METHODS AND COMPOSITIONS FOR GLYPHOSATE TOLERANCE IN PLANTS” (Monsanto Technology LLC, priority 2023, published 2026)
# Tested on: S. cerevisiae strain sKR-024
# Assay: Mock selection for glyphosate resistance, 50:50 inoculum, flow cytometry
# Type: cell-based, Saccharomyces cerevisiae
# Description: Yeast cultures were either started directly from a random colony or from freezer stock and picked in triplicate into appropriate selective media, either YSC-Ura, YSC-Leu, and YSC-Ura-Leu. Cultures were grown for 48 hours at 30° C. to saturation phase. Fully grown yeast cultures were then diluted back to OD 0.01 and allowed to grow for 48 hours at 30° C. in a 96 deep-well plate shaker. Fluorescence was then analyzed via flow cytometry (BD Accuri C6 Flow Cytometer, BD Biosciences) at an excitation of 588 nm and emission of 633 nm for mKate2 RFP. Yeast populations of interest were then gated according to relative size and complexity using a logarithmic plot of side scatter (SSC) and forward scatter (FSC) and spectra were generated outlining RFP fluorescence intensity vs. cell count. FlowJo software was used to analyze all flow cytometry data.
# To do so, a mock selection for glyphosate resistance was achieved by transforming wild-type EPSPS into sKR-024 containing an RFP cassette and TIPS into sKR-024 without an RFP cassette to enable flow cytometry tracking of population distributions. A 50:50 starting inoculum of each strain was cultured in yeast minimal media containing 0, 2.5, 5, 7.5, or 10 mM glyphosate.
molecule,measurement,setting,value
"TIPS: Zea mays EPSPS double mutant T102I and P106S, SEQ ID NO:9; positive control (protein, Zea mays, positive control) AGAEEIVLQPIKEISGTVKLPGSKSLSNRILLLAALSEGTTVVDNLLNSEDVHYMLGALRTLGLSVEADKAAKRAVVVGCGGKFPVEDSKEEVQLFLGNAGIAMRSLTAAVTAAGGNATYVLDGVPRMRERPIGDLVVGLKQLGADVDCFLGTDCPPVRVNGIGGLPGGKVKLSGSISSQYLSALLMAAPLALGDVEIEIIDKLISIPYVEMTLRLMERFGVKAEHSDSWDRFYIKGGQKYKSPKNAYVEGDASSASYFLAGAAITGGTVTVEGCGTTSLQGDVKFAEVLEMMGAKVTWTETSVTVTGPPREPFGRKHLKAIDVNMNKMPDVAMTLAVVALFADGPTAIRDVASWRVKETERMVAIRTELTKLGASVEEGPDYCIITPPEKLNVTAIDTYDDHRMAMAFSLAACAEVPVAIRDPGCTRKTFPDYFDVLSTFVKN",cell count after addition of glyphosate,"0, 2.5, 5, 7.5 or 10 mM glyphosate",consistent cell count across multiple levels of glyphosate
same,cell count in the absence of glyphosate,0 mM glyphosate,consistently lower cell count of TIPS relative to wild-type EPSPS
